# Measurements published in US6967029 (Amgen, dated 2005).
# B1: E. coli derived human SCF^1-130 analog (ligand)
# chain: EGICRNRVTNNVKDVTKLVANLPKDYMITLKYVPGMDVLPSHCWISEMVVQLSDSLTDLLDKFSNISEGLSNYSIIDKLVNIVDDLVECVKENSSKDLKKSFKSPEPRLFTPEEFFRIFNRSIDAFKDFV
# notes: Plasmid encodes an initiating methionine before residue 1; Dimeric in solution by gel filtration
# Target: T1, human SCF receptor, native, on cell membranes (human, UniProt P10721 26-976)
# T1 construct: whole, on cells; also called human SCF receptors on OCIM1 cells (isolated OCIM1 plasma membrane); SCF receptors on leukemic blasts
# Assay: radioreceptor assay: competition with 125I-huSCF on OCIM1 plasma membrane
# Method: The SCF radioreceptor assay was conducted as follows with all steps being performed on ice. […] A dilution of isolated OCIM1 plasma membrane in 50 ul buffer known to give 20% specific binding was then added to each tube. Tubes were vortexed and allowed to incubate for 24 hrs at 4° C. […] All tubes were oriented with lid opening tabs straight up. Supernatants were carefully aspirated by a sliding a 21 gauge needle down the side opposite the pellet (hinge side of tube) to bottom of each tube. Tubes were counted in gamma counter for 1 min. each.
binder,measurement,value
B1,specific activity in the radioreceptor assay relative to SCF^1-164,~50 % of the value for SCF^1-164
